# Source: the domain aggregation screens of Martell et al. (2025)
# Assay: soluble fraction after stress (log2 fold change); higher = more stays soluble; pooled small domains, quantitative proteomics
# Details: stress: pH 4
# How it was run: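 Aggregation propensity is estimated from the fold change in each domain's soluble amount after acid stress. Pooled small-domain libraries were stressed at pH 4, and higher log2 values mean more stayed soluble.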
row,Sequence,soluble fraction (log2)
1,HMISVTNRTGTGLNDVKVEVFPVGRQMVFSATVFRVESEATNRFSLGELRGSDGTPFNQRVHRPESI,-0.07
2,HMKTGIGIVEANGGLRLRSQASTSSDVLSTAHNGDNVVVIRQVGNWYLVNYNLKIGYMHSDYITFKE,-1.3
3,HMEKSLSAQVYEKIKAGIISLKYPPGSVLKERELSESLGVSRTPVREAIQRLSQESWLVPGEGKRMQVRP,≥ 0.43
4,HMGSGQIRYITENTVRVVYGTSKENEFVFQDGKPYPKDTPYHIHYTRNLEEYFMSGVEHDKNSKIILKVD,-0.792
5,HMQQSQLDDIKSVVGGDEGYNKLREWTQANVPDETLKAFDKILDTQDPTMIKVAVEGFAAQMRQAE,-0.508
6,HMTHHGHSIKRIRDMLGIKQETLAAELNMTQQAFSKLEQKEQIEDEMLDKIAKILHVSTEALKT,-0.459
7,HMAEMRYLDQIYEVNVPLPDLSLEDGDLLARWAVNFHQRYEELFSYRQSDQEIRLVTLRVTVLGELP,-1.67
8,HMSVDDVALRLEFGPSDAEALAFVHRHGAILSETTDRDTGVVSVHVRLSEADAGRFNQRYGV,-0.233
9,HMEAYMVPNVKNKTLNEAQQALSNQKLKGLVIDSSYVKGVPDGMVLDQNPAGGARVKEGRTIYLTVTTS,0.259
10,HMETQVKVPNVVGMTQSKAIAKLKESKLDYEVQEQKHDGDKGKVVDQSEAEGTYVDRGTKVIIYVSTGE,≥ 0.43
11,HMVDETDVPTFTDMTLEEAQNEAKQRNLKLEITESPSDKEKDTILEQDPEPGKTVASGSTVKLTVSNGEE,0.138
12,HMDPVATLTPREREVLELMAEGRTNAGIAEAMVVTEGAVEKHIQRIFAKLGLHADGGVHRRVAAVLALLG,-0.872
13,HMPAAPVFLQKDLLDAGLIGQADSAARREKLGKILGIGYGNGKVMLQRLNSFGIERDAFEQAVQE,-0.195
14,HMAQSLAQKINNYILTNRSSIANVAKSIGYSRTTVSRYLAGKYDSDPTDLENKLAEFLAHETGE,0.017
15,HMITALLPGTVLIREFDGRDYHVTVATDGRFEMDGHKYPSLSAVAKHITGTQWSGPAFFGLN,-0.0323
16,HMSGKWKIRILWYIAEYEVQRFGELRRRLGDITQSTLTEQLRELEQDGFVSRYVYQEVPSKVEYSLTE,-0.0562
17,HMDPNFKYIIRIANSDVSGEQKLAYALTSIRGIGERTSNAIIQKLGLDSTQLAGKLTDKNVEDIESA,-0.0403
18,HMDSRQIIAALQARYADETGITALKIKFNNVLGYFVDVPARYGDPLMKPPLSETFIHRQTLASNVRF,-0.0558
19,HMKLVTIPNVIGKTKEDAMKTLKDLGVTVTVETKESEKDDGTVIAQSKAEGTKLTAGENVTITVSKKKK,-0.487
20,HMNQASLTYSEFIANVESKAITRVTISGDTISGILADGKPFQTIYPMADLELLPILRRSGVDINVKEVQ,0.22
21,HMSRFLEGILQRRAGGKNYFVPDDGSNPIFIADRNSAGAANGDRVRIAQFARRPRSGPEGEVVEILKRAK,0.153
22,HMQNEQIAFSKFLQEVDSGRVVQVEIQGNNIKGILSDGSKFYTYSPNYPELVGKLSEKGVNIVASPVE,0.0117
23,HMTTIKLTQEDVEKIKSLPKRTFLIGNLQQTGLYDEKTRRFYYLDANGEWNGRLAIINTPPPPPPPP,-0.0951
24,HMIKYTIEELGELTGFTRRTIRYYVQEGLIDPPAGRGRGGFYYDSHVQQLLRIKSFQEKGIGITAMVSLM,-1.71
25,HMREEQELFRKLLEVNGIGPKVAAGMLAGGRPEDVVSAIRREDVAWLTKLPGIGRKTAQRIVLDLKDKLD,0.165
26,HMTKYKEIVDQLRTNIYEGVFPALSKLPEQTALAKRFQTSRMTIQKALNQLKQEGLISTKRGHGTYVNSAT,0.021
27,HMTEDTPIIVERVVADIDENVVAIVRKFKDAFKSITAQREIKKKLRSILWVNYQIKDQEVFDKAYQYIEMY,-0.784
28,HMAEVPSLIGKSLDAAKQAIIDAGFKVGSVSYDNSDSYGKGQVMWQQYEPSTKVKKGSSISIKVSKGS,-0.121

row,Sequence,soluble fraction (log2)
1,HMKKSGFFSAGDRIQLTDNKGRQYSFNITEGKEFHTHQGFIKHDDLIGMPEGSVVSINSTTGVVQKFMAF,-0.584
2,HMAEPLMTQIVEIEYADAEGLRENLEQFLTRLDEKTLLGSVLVDRHTNSLIIQAVRSDLERMLPLIETLDR,-1.49
3,HMINLRTALNNAGVMQKELSDILYMTPQDVNRRFSGVTKWKPLEKRAIMQFLEDRGFEYTEEQLF,-0.883
4,HMLPLGSNEYETAVIKHLASGVQDADEIQRLTGIDQTSLNTALTMLELAGTIRPLGNNHWTL,0.22
5,HMTVDYDKFTKDTVVQHNKFGKGVIIMTSGDGEDKIASIAFQGLGVKRFSLAIAASNLKILGKVNED,-0.195
6,HMGIERTNADTSFSVNVYGKELIITSNKPLVVNIYAIDGTLVRTEQVTIGVNTVSGLPSGIYVVGQQKVVI,-0.752
7,HMLIVLKPNVSQEEIDHIVDKIRSLSLEPHVSTGVQRTIITVIGDEDVIREQPLEALAGVESVKSILKP,-0.144
8,HMSTLKSALDEIPGIGAARKRALLNHFGSTRVISSVGVKDLEQVEGVSKKIALLIYGYFHDK,≥ 0.43
9,HMTYFIADLIGLQVYTDSGELLGKVDDIYNSGSADIYVVKDELGKQILLPGIKDVIKQIDVDNEKIIVHLI,-1.62
10,HMDTIASESVRNRIEELISNENPKKPLSDQALVKMLQEFDIKIARRTVAKYREMLKIPPSSKRKQV,0.0429
11,HMEITTLTGVLGAGRLDSALAAALPQYSRARIQALISDAALRINGQVVADAGSKKMSGQTFELNIPAPVP,0.0449
12,HMVRDGDTFVVPKMDRFARNVEDTLHLVRELTERGVIFQMGHTVYDPHDPWSKLFLTFLAAIAEA,0.191
13,HMNNIIEQIKADIKKLEEKLDKSSENALNKLEKDYSSLSTESKKKLDDAGYGARIKALRVKFAALSTQ,≥ 0.43
14,HMEVGKRIAEIRKENRMSQEQFGQLFHVTRQTVSNWENAKSYPDLQTLVKISELFEITMDELLK,-0.454
15,HMASVRPVAPPDPKTHTRLTYRIRRGDTLERIGRRYRVSIAEIQAWNTLRDPGDILAGQRLVIWIPTS,0.117
16,HMRSYTPGSAFRLSSVPVYNAETGPSIGVRSGTYYIHSLPVSNGRIRMTNLISRVGKPGQVSFWVEISR,0.0269
17,HMFAVPAPEVDDILSEKKVDVLLLGPQVRYLLEQFTEKLKDKNIPIGVIPMVDYGMMNGSKVLALAEELIG,-0.288
18,HMNRIKIYPTPGSKVLSIENINFSLIHDFKILDIFGREVKNFTVSSEKNTKMLVDTSKLSDGLYFIFFNTF,-0.61
19,HMDGRIRFRHAALHDPDVAARLHDYLTTSLPGVRSARVNSQTGSLLLEYDPEVLDRSTLLDLAARAESLL,-1.06
20,HMDQFMLQSAWLRAVQHVMKHTDDVGTQFAEEARRMHYGEADERPIRGQATSDEARALHDEGIEVMALPI,-0.192
21,HMKNANGYGSITKLKGNRRKPYMVRITVGRDENGFPIRKVLGYYSSKANAVAALSDYNREPYDI,-0.281
22,HMESPELIHILKEAEWQIWQQIQGLPEKQRIAMTLFAMDDLSYQEIADVMKVSVSAIESLLFRARTQLKKY,-0.71
23,HMDKLSYALGLSMGHNFLGSGIKSLNVEDFAKGVEAVYKQEKPEISFDEAKKIINEFFSNLQDEIAE,-1.33
24,HMETLGADLRALRKSRGLTLLDMAESLGRSVGWLSQVERDLSDPSISDLREIAELLGVPISMLFRH,-1.33
25,HMFAQDQLFKKDNSKVDVKILEINTTEIKYKLFTYQDGPTITVAKKDVALIIYQNGVHEVIT,-1.17
26,HMEKEEELNSIRPDLDGNDIMEILGVPAGPKVGKAYNYLLNVRLDEGPLSRAEAISRLEAWWENQ,-1.22
27,HMTEDIAVRILEFLEDNNGFYALNDKTPSEKIHDLFGVSKKKFKIALGGLYKQRLITVSDAGVTLVK,-0.404
